Experimental data from the supplement of paper PMC12042874.
± gives the uncertainty stated by the source.

Test: amyloid nucleation score (Sup35N fusion, yeast selection) (log enrichment); library NNK1; higher = more nucleation; inactive = no reads after selection
In short: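 After 24 hours of induction with 100 μM copper sulfate, psi-negative yeast expressing peptides of 20 random codons fused to Sup35N were grown for 7 days at 30°C on medium lacking adenine and uracil. Input and output plasmid inserts were sequenced with Illumina, and sequences with under 100 input reads were discarded. Scores for nucleation are the DiMSum log enrichment of output over input reads, centred on the mode score of non-aggregating sequences.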

Q: Which amyloid nucleation score does the source give for DQVISNCRLNMGV here?
A: Its amyloid nucleation score is -0.369 ± 0.56.

Q: With DRATGISEAVEWHGRWVGKN as the substance, how does the amyloid nucleation score read?
A: Its amyloid nucleation score is -0.534 ± 0.83.

Q: For DRCSY, which amyloid nucleation score is on record?
A: The amyloid nucleation score was -0.431 ± 0.39.

Q: For DRFGWF, which amyloid nucleation score is on record?
A: The amyloid nucleation score was -0.148 ± 0.32.

Q: With DRFLETICSEGSRPGSGN as the substance, how does the amyloid nucleation score read?
A: Its amyloid nucleation score is 0.917 ± 0.21.

Q: Which amyloid nucleation score does the source give for DRFQNYFCILCFPFYANVCE here?
A: The amyloid nucleation score was 2.71 ± 0.12.

Q: For DRGDLAFSFSGQRTGGKEPR, which amyloid nucleation score is on record?
A: The amyloid nucleation score was -0.219 ± 0.51.

Q: Which amyloid nucleation score does the source give for DRLVGWVVWLHVVFPRMYVL here?
A: The amyloid nucleation score was 0.483 ± 0.72.

Q: For DRMLHKAI, which amyloid nucleation score is on record?
A: Its amyloid nucleation score is -0.624 ± 1.5.

Q: For DRNLDEWGEASL, which amyloid nucleation score is on record?
A: The amyloid nucleation score was -0.145 ± 1.5.

Q: With DRREGF as the substance, how does the amyloid nucleation score read?
A: The amyloid nucleation score was -0.892 ± 0.32.

Q: With DRVSCNEEFQRKCIFTVIRR as the substance, how does the amyloid nucleation score read?
A: Its amyloid nucleation score is 1.19 ± 0.63.

Q: For DSDLRLNLCELTFVPWRRSG, which amyloid nucleation score is on record?
A: The amyloid nucleation score was 2.86 ± 0.19.

Q: Which amyloid nucleation score does the source give for DSLSGSICGFRLYALLFTLT here?
A: The amyloid nucleation score was -0.113 ± 0.53.

Q: Which amyloid nucleation score does the source give for DSQVL here?
A: The amyloid nucleation score was 1.25 ± 0.56.

Q: For DSRLGLMWMYEPIIRDGKWF, which amyloid nucleation score is on record?
A: Its amyloid nucleation score is 0.802 ± 0.9.

Q: Which amyloid nucleation score does the source give for DSRPCGYSRITFVCKGCAPC here?
A: The amyloid nucleation score was 0.53 ± 0.79.

Q: For DSRVKRY, which amyloid nucleation score is on record?
A: The amyloid nucleation score was “inactive”.

Q: Which amyloid nucleation score does the source give for DSSCADR here?
A: Its amyloid nucleation score is 0.674 ± 0.41.

Q: With DSSVLRMQRVDRTRAFTYHW as the substance, how does the amyloid nucleation score read?
A: The amyloid nucleation score was -0.68 ± 0.56.

Q: With DSWIQHGGCEFVLIVRRHFI as the substance, how does the amyloid nucleation score read?
A: Its amyloid nucleation score is 0.714 ± 0.97.

Q: With DSWYRLLLARACNISHVRGR as the substance, how does the amyloid nucleation score read?
A: The amyloid nucleation score was -0.527 ± 0.48.

Q: With DSYWFRRLC as the substance, how does the amyloid nucleation score read?
A: Its amyloid nucleation score is 0.22 ± 0.71.

Q: Which amyloid nucleation score does the source give for DTKIDACIRNSLHGWSRMAR here?
A: The amyloid nucleation score was 0.181 ± 0.38.

Q: For DTNIHRVEFLISFFGRELSQ, which amyloid nucleation score is on record?
A: Its amyloid nucleation score is “inactive”.

Q: With DTSGSYMLSYLWGYWQLRSA as the substance, how does the amyloid nucleation score read?
A: The amyloid nucleation score was 0.073 ± 0.56.

Q: With DTVSMLHQLVCW as the substance, how does the amyloid nucleation score read?
A: Its amyloid nucleation score is 7.245 ± 0.053.

Q: Which amyloid nucleation score does the source give for DTVYDFTMPAWYDYMFWTKW here?
A: Its amyloid nucleation score is “inactive”.

Q: Which amyloid nucleation score does the source give for DVDGEVRVLDFV here?
A: The amyloid nucleation score was -0.24 ± 0.45.

Q: Which amyloid nucleation score does the source give for DVIHDICHAVSIIGAWCRDR here?
A: Its amyloid nucleation score is -0.061 ± 0.3.

Q: With DVKCRLWIHAL as the substance, how does the amyloid nucleation score read?
A: Its amyloid nucleation score is -0.066 ± 0.54.

Q: With DVLSSNVFRNWVMVRSYSRQ as the substance, how does the amyloid nucleation score read?
A: The amyloid nucleation score was 0.795 ± 0.52.

Q: For DVPGSRQVLVYFFNQIFDEM, which amyloid nucleation score is on record?
A: Its amyloid nucleation score is 5.9 ± 0.088.

Q: With DVRGRHRCRFGSQQTKRQS as the substance, how does the amyloid nucleation score read?
A: Its amyloid nucleation score is 0.586 ± 0.8.

Q: Which amyloid nucleation score does the source give for DWRYPLAYPVFSIDSRMFD here?
A: Its amyloid nucleation score is -0.312 ± 0.46.

Q: With DWVELR as the substance, how does the amyloid nucleation score read?
A: The amyloid nucleation score was -0.101 ± 0.86.

Q: With DWVYITLNGLLW as the substance, how does the amyloid nucleation score read?
A: Its amyloid nucleation score is -0.145 ± 0.46.

Q: For DYALYYGVASNRFFGLFRSP, which amyloid nucleation score is on record?
A: Its amyloid nucleation score is 0.642 ± 0.31.

Q: For DYESKSNFPYTQVNAITW, which amyloid nucleation score is on record?
A: The amyloid nucleation score was -1.05 ± 1.2.

Q: For DYKFRDRL, which amyloid nucleation score is on record?
A: Its amyloid nucleation score is 0.364 ± 0.32.

Q: For DYNLVSRYVEPSRLVGFLRI, which amyloid nucleation score is on record?
A: Its amyloid nucleation score is -0.226 ± 0.73.

Q: For DYPCRRGDLRRG, which amyloid nucleation score is on record?
A: The amyloid nucleation score was 0.642 ± 0.95.

Q: With DYRADFNNFVFEERSSYISV as the substance, how does the amyloid nucleation score read?
A: Its amyloid nucleation score is -0.236 ± 0.49.

Q: For DYSMFHTVLKVRVCNYFFVW, which amyloid nucleation score is on record?
A: Its amyloid nucleation score is 2.37 ± 0.24.

Q: Which amyloid nucleation score does the source give for DYVPYEKAHRARMYCPTHQG here?
A: The amyloid nucleation score was 0.409 ± 0.35.

Q: With EAFYFRLRKLFDRNPGGEGT as the substance, how does the amyloid nucleation score read?
A: Its amyloid nucleation score is 0.621 ± 0.32.

Q: With EALCHMWQYSGCP as the substance, how does the amyloid nucleation score read?
A: Its amyloid nucleation score is 0.324 ± 0.66.

Q: With ECFDANIWFWSCPMVHYG as the substance, how does the amyloid nucleation score read?
A: Its amyloid nucleation score is 0.904 ± 0.19.

Q: For ECGLGRSKEQSNGSWMCLHR, which amyloid nucleation score is on record?
A: The amyloid nucleation score was -0.464 ± 0.54.

Q: Which amyloid nucleation score does the source give for ECYQKTGVCRK here?
A: The amyloid nucleation score was -0.447 ± 0.89.

Q: With EDSGNVIGEYFWKF as the substance, how does the amyloid nucleation score read?
A: The amyloid nucleation score was -1.44 ± 1.9.

Q: For EDTSKVKICFSVIVYSMLNR, which amyloid nucleation score is on record?
A: The amyloid nucleation score was 8.161 ± 0.045.

Q: With EENLSSPWMPMVPIDTINWF as the substance, how does the amyloid nucleation score read?
A: Its amyloid nucleation score is 1.67 ± 0.52.

Q: With EFERVRYLYCGRPVPSHILL as the substance, how does the amyloid nucleation score read?
A: The amyloid nucleation score was 0.005 ± 0.89.

Q: Which amyloid nucleation score does the source give for EFGNVIRVCNLI here?
A: Its amyloid nucleation score is -0.289 ± 0.34.

Q: With EFIFFCFVLCYANVMLLWN as the substance, how does the amyloid nucleation score read?
A: The amyloid nucleation score was 0.601 ± 0.42.

Q: With EFRKEG as the substance, how does the amyloid nucleation score read?
A: The amyloid nucleation score was 1.02 ± 0.52.

Q: Which amyloid nucleation score does the source give for EFRSSVDWNAFMKLLVCTKH here?
A: Its amyloid nucleation score is 0.021 ± 0.93.

Q: For EFSVFYMGFGVM, which amyloid nucleation score is on record?
A: The amyloid nucleation score was “inactive”.

Q: Which amyloid nucleation score does the source give for EFYVLISV here?
A: The amyloid nucleation score was -1.23 ± 1.9.

Q: With EGITHVFIRDGVGSYLKAET as the substance, how does the amyloid nucleation score read?
A: The amyloid nucleation score was 1.33 ± 0.58.

Q: Which amyloid nucleation score does the source give for EGLARCQCLCLTRVIYVESA here?
A: The amyloid nucleation score was -0.403 ± 1.4.

Q: Which amyloid nucleation score does the source give for EGLTNMWGGSYYNGLTFMGQ here?
A: The amyloid nucleation score was -0.754 ± 0.54.

Q: Which amyloid nucleation score does the source give for EGPQIKAAGKPY here?
A: The amyloid nucleation score was -0.373 ± 0.32.

Q: For EGSPKICPRYST, which amyloid nucleation score is on record?
A: Its amyloid nucleation score is 0.088 ± 0.6.

Q: Which amyloid nucleation score does the source give for EGTLSMALTL here?
A: The amyloid nucleation score was 0.849 ± 0.49.

Q: With EIAYVLICRHLLECIRA as the substance, how does the amyloid nucleation score read?
A: The amyloid nucleation score was “inactive”.

Q: For EIIET, which amyloid nucleation score is on record?
A: The amyloid nucleation score was 0.534 ± 0.34.

Q: With EIIFVRLGANEHWSHNVYVS as the substance, how does the amyloid nucleation score read?
A: Its amyloid nucleation score is -0.746 ± 1.2.

Q: With EIPLRAGWPPWCGSDICL as the substance, how does the amyloid nucleation score read?
A: Its amyloid nucleation score is 0.639 ± 0.55.

Q: Which amyloid nucleation score does the source give for EIVRLVSVSVWVG here?
A: Its amyloid nucleation score is 0.014 ± 0.69.

Q: For EIWPFMPRDHPMNALIYVSR, which amyloid nucleation score is on record?
A: The amyloid nucleation score was 1.34 ± 0.39.
